{"source": "patent US20210130452A1", "about": "(Merck KGaA, published 2021)", "binders": {"B1": {"name": "07B11 (VHH)", "VHH": "EVQLVESGGGLVQAGGSLRLSCVASGRAFSSYVMGWFRQAPGMEREFVALIRWSDGITGYVDSVKGRFTISRDNAKNTVYLQMNSLKPEDTAVYYCAAAVRPGDYDYWGQGTQVTVSS", "notes": "Class 3"}, "B2": {"name": "11A06 (VHH)", "VHH": "EVQLVESGGGLVQPGESLRLSCKASGFSLDYYALGWFRQAPGKEREGISCITSSDASAYYTDSVKGRFTISRDNSKNTVYLQMNSLKTEDTAIYYCAAALLTCSSYYDAYTYWGQGTQVTVSS", "notes": "Class 2 Nanobody (anti-IL-17A and IL-17A/F); not shown: c-myc, His6 tag"}, "B3": {"name": "24B08 (VHH)", "VHH": "EVQLVESGGGLVQAGGSLRLSCAVSGGTFSTYKMGWFRQAPGKEREIVARISTNGPTAYAEFVKGRFTVSRENTKNTVYLQMNSLNIEDTAVYYCAAGYDSLFAGYDYWGQGTQVTVSS", "notes": "Class 3"}, "B4": {"name": "07B09 (VHH)", "VHH": "EVQLVESGGGLVQAGGSLRLSCGASGGTFSSYATGWFRQAPGKEREFVAVLRWSDGHTAYADSVKGRFTISRDGAKNTMYLQMSSLKPEDTAIYYCTTATRPGEWDYWGQGTQVTVSS", "notes": "Class 3"}, "B5": {"name": "24G10 (VHH)", "VHH": "B4 VHH with S25A, L51F, G56S, M79L", "notes": "Class 3"}, "B6": {"name": "08H01 (VHH)", "VHH": "B4 VHH with G56S, K65E, M79V, A99G, D106H", "notes": "Class 3"}, "B7": {"name": "11C08 (VHH)", "VHH": "EVQLVESGGGLVQAGGSLRLSCAASGVIFRLNAMGWYRAAPGKQRELVAIIVNGGSTNYADSVKGRFTISRDSAKNAVYLQMNSLKPEDTAVYYCYYNIPGDVYWGQGTQVTVSS", "notes": "Class 4 Nanobody (cross-reactive: anti-IL-17A, IL-17F and IL-17A/F); not shown: c-myc, His6 tag"}, "B8": {"name": "13B05 (VHH)", "VHH": "EVQLVESGGRLVQAGGSLRLSCAASGRTFTSYPMGWFRQAPGKEREFVAAISMSGDDTAYTDFVRGRFTISRDDARNTVYLHMTSLKPEDTAVYYCAARTSYDGTYDYIDDYSYWGQGTQVTVSS", "notes": "as for B7"}}, "key": {"human IL-17A [1]": {"target": "T1, human IL-17A (human, UniProt Q16552 24-155)", "T1 construct": "secreted form (GenBank U32659) expressed in Hek293 with C-terminal 6-His; also called hIL-17A; IL-17A-6HIS", "T1 sequence (Q16552 other isoform, or with tags, fused parts or gaps)": "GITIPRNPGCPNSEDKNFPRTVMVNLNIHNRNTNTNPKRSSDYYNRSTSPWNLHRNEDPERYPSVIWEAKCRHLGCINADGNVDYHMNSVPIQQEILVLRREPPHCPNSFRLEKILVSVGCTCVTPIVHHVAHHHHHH", "assay": "ELISA, coated IL-17A", "procedure": "(§1) Binding of a selected panel of anti-IL-17 Nanobodies to IL-17 of other species was assessed using a binding ELISA. […] HRP (horseradish peroxidase) conjugated anti-myc (Serotec, MCA 2200P) was used for detection using esTMB as substrate."}, "guinea pig IL-17A": {"target": "guinea pig IL-17A (guinea pig)", "assay": "ELISA, coated IL-17A", "procedure": "as §1"}, "mouse IL-17F": {"target": "T2, mouse IL-17F (mouse, UniProt Q7TNI7 29-161)", "T2 sequence (looked up)": "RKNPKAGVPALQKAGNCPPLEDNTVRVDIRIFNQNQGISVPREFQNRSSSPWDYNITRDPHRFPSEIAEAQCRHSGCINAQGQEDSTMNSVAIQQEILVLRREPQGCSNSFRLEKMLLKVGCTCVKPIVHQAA", "assay": "ELISA, coated IL-17F;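 also: binding ELISA on coated antigen from various species, with bound Nanobodies revealed by an HRP-linked anti-myc antibody and esTMB substrate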", "procedure": "as §1"}, "rat IL-17F": {"target": "T3, rat IL-17F (rat, UniProt Q5BJ95 29-161)", "T3 sequence (looked up)": "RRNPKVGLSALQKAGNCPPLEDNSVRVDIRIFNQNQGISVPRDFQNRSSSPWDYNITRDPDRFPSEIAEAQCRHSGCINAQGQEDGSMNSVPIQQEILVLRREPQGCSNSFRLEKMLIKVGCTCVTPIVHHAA", "assay": "ELISA, coated IL-17F", "procedure": "as §1"}, "human IL-17A [2]": {"target": "T4, human IL-17A (human, UniProt Q16552 24-155, biotinylated with Sulfo-NHS-LC-Biotin in the AlphaScreen assays only)", "T4 sequence (Q16552 other isoform, or with tags, fused parts or gaps)": "as the sequence (Q16552 other isoform, or with tags, fused parts or gaps) above", "assay": "cell-based or functional assay"}, "[3]": {"target": "T5, human IL-17A/F heterodimer (human, UniProt Q16552 24-155; Q96PD4 31-163, limits assumed, biotinylated with Sulfo-NHS-LC-Biotin in the AlphaScreen assays only)", "T5 sequence (Q16552 24-155 limits assumed, chain 1 of 2)": "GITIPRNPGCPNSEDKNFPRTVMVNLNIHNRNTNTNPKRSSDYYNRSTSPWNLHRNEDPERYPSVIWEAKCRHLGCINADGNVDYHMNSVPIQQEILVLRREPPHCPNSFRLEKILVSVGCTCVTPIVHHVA", "T5 sequence (Q96PD4 31-163 limits assumed, chain 2 of 2)": "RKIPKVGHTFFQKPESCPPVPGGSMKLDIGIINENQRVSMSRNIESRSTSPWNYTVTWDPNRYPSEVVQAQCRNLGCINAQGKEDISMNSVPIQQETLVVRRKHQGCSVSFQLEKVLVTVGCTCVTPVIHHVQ", "assay": "cell-based or functional assay"}, "human IL-17A [4]": {"target": "T4, human IL-17A", "assay": "AlphaScreen competition, hIL-17A - IL-17RA-Fc;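 also: receptor Fc-fusion plus Acceptor and streptavidin Donor beads incubated with the mixture for 1 h at room temperature before reading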", "procedure": "(§2) To this mixture, the IL-17RA or IL-17RC Fc-fusions, Acceptor beads and the streptavidin Donor beads were added and further incubated for 1 hour at RT."}, "human IL-17A [5]": {"target": "T4, human IL-17A", "assay": "AlphaScreen competition, hIL-17A - IL-17RC-Fc;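 also: Read-out after 1 h at room temperature with the receptor Fc-fusion, Acceptor beads and streptavidin-coated Donor beads present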", "procedure": "as §2"}, "human IL-17A [6]": {"target": "T4, human IL-17A", "assay": "SPR Biacore, hIL-17A on chip; purified protein"}, "[7]": {"target": "T5, human IL-17A/F heterodimer", "assay": "AlphaScreen competition, hIL-17A/F - IL-17RA-Fc", "procedure": "as §2"}, "[8]": {"target": "T5, human IL-17A/F heterodimer", "assay": "AlphaScreen competition, hIL-17A/F - IL-17RC-Fc", "procedure": "as §2"}, "[9]": {"target": "T5, human IL-17A/F heterodimer", "assay": "SPR Biacore, hIL-17A/F on chip; purified protein"}, "marmoset IL-17A": {"target": "T6, marmoset IL-17A (marmoset, IL-17A is a disulfide-linked homodimer. One chain is given.)", "T6 chain": "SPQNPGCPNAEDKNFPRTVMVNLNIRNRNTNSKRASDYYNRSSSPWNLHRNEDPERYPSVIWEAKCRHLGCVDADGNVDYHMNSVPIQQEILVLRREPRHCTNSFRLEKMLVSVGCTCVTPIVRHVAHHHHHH", "assay": "ELISA, coated IL-17A", "procedure": "as §1"}}, "note": "Positions count from the first letter of the chain named.", "data": [{"binder": "B1", "values": [{"measurement": "OD", "setting": "human IL-17A [1]", "result": 0.03, "unit": "OD"}, {"measurement": "OD", "setting": "guinea pig IL-17A", "result": 0.007, "unit": "OD"}, {"measurement": "OD", "setting": "mouse IL-17F", "result": -0.0005, "unit": "OD"}, {"measurement": "OD", "setting": "rat IL-17F", "result": -0.0105, "unit": "OD"}]}, {"binder": "B2", "values": [{"measurement": "IL-17A-induced IL-6 production in HT-1080 cells, Emax", "setting": "human IL-17A [2]", "result": 98.5, "unit": "%"}, {"measurement": "IL-17A-induced IL-6 production in HT-1080 cells, IC50", "setting": "human IL-17A [2]", "result": 4, "unit": "nM"}, {"measurement": "IL-17A/F-induced IL-6 production in HT-1080 cells, Emax", "setting": "[3]", "result": 106, "unit": "%"}, {"measurement": "IL-17A/F-induced IL-6 production in HT-1080 cells, IC50", "setting": "[3]", "result": 28.1, "unit": "nM"}, {"measurement": "IC50", "setting": "human IL-17A [4]", "result": 0.081, "unit": "nM"}, {"measurement": "IC50", "setting": "human IL-17A [5]", "result": 0.461, "unit": "nM"}, {"measurement": "koff", "setting": "human IL-17A [6]", "result": 0.00016, "unit": "s⁻¹"}, {"measurement": "IC50", "setting": "[7]", "result": 0.14, "unit": "nM"}, {"measurement": "IC50", "setting": "[8]", "result": 0.039, "unit": "nM"}, {"measurement": "koff", "setting": "[9]", "result": "3.8e-05", "unit": "s⁻¹"}]}, {"binder": "B3", "values": [{"measurement": "OD", "setting": "human IL-17A [1]", "result": 0.103, "unit": "OD"}, {"measurement": "OD", "setting": "marmoset IL-17A", "result": 0.129, "unit": "OD"}, {"measurement": "OD", "setting": "guinea pig IL-17A", "result": 0.012, "unit": "OD"}, {"measurement": "OD", "setting": "mouse IL-17F", "result": -0.0015, "unit": "OD"}, {"measurement": "OD", "setting": "rat IL-17F", "result": 0.0035, "unit": "OD"}]}, {"binder": "B4", "values": [{"measurement": "OD", "setting": "human IL-17A [1]", "result": 0.005, "unit": "OD"}, {"measurement": "OD", "setting": "marmoset IL-17A", "result": 0.005, "unit": "OD"}, {"measurement": "OD", "setting": "guinea pig IL-17A", "result": 0.009, "unit": "OD"}, {"measurement": "OD", "setting": "mouse IL-17F", "result": -0.0015, "unit": "OD"}, {"measurement": "OD", "setting": "rat IL-17F", "result": 0.0025, "unit": "OD"}]}, {"binder": "B5", "values": [{"measurement": "OD", "setting": "human IL-17A [1]", "result": 0.009, "unit": "OD"}, {"measurement": "OD", "setting": "guinea pig IL-17A", "result": 0.008, "unit": "OD"}, {"measurement": "OD", "setting": "mouse IL-17F", "result": -0.0005, "unit": "OD"}, {"measurement": "OD", "setting": "rat IL-17F", "result": 0.0025, "unit": "OD"}]}, {"binder": "B6", "values": [{"measurement": "OD", "setting": "guinea pig IL-17A", "result": 0.007, "unit": "OD"}, {"measurement": "OD", "setting": "mouse IL-17F", "result": -0.0005, "unit": "OD"}, {"measurement": "OD", "setting": "rat IL-17F", "result": 0.0045, "unit": "OD"}]}, {"binder": "B7", "values": [{"measurement": "IL-17A-induced IL-6 production in HT-1080 cells, Emax", "setting": "human IL-17A [2]", "result": 73, "unit": "%"}, {"measurement": "IL-17A-induced IL-6 production in HT-1080 cells, IC50", "setting": "human IL-17A [2]", "result": 130, "unit": "nM"}, {"measurement": "IC50", "setting": "human IL-17A [4]", "result": 2.12, "unit": "nM"}, {"measurement": "IC50", "setting": "human IL-17A [5]", "result": 4.8, "unit": "nM"}, {"measurement": "koff", "setting": "human IL-17A [6]", "result": 0.0079, "unit": "s⁻¹"}]}, {"binder": "B8", "values": [{"measurement": "IL-17A-induced IL-6 production in HT-1080 cells, Emax", "setting": "human IL-17A [2]", "result": 104, "unit": "%"}, {"measurement": "IL-17A-induced IL-6 production in HT-1080 cells, IC50", "setting": "human IL-17A [2]", "result": 14, "unit": "nM"}, {"measurement": "IC50", "setting": "human IL-17A [4]", "result": 0.118, "unit": "nM"}, {"measurement": "IC50", "setting": "human IL-17A [5]", "result": 0.249, "unit": "nM"}, {"measurement": "koff", "setting": "human IL-17A [6]", "result": 0.0003, "unit": "s⁻¹"}]}]}
